Values joined by “and” are separate entries in the source; they are usually repeats but may differ in a detail not shown here. Identical values can stand only once. One block for each binder: values may come before it.
Key:
Settings in all cases: both partners purified
M1-Ub2 = target: T1, M1-Ub2 (UniProt P0CG48 1-76; P0CG48 1-76); experiment: SPR; Biacore T200, 25 °C; wild-type or mutant His6-yNpl4^113–580, yUfd1–His6-yNpl4^113–580 or His6-hNpl4 immobilized on a CM5 chip by amine coupling; Ub2 or Ub4 in two-fold dilution series injected 60 s at 10 μL per min in 10 mM HEPES-NaOH pH 7.5, 150 mM NaCl, 0.05% Tween-20, 0.5 g/L BSA; equilibrium Kd
T1 construct: ubiquitin (Ub), first unit; ubiquitin (Ub), second unit

M1-Ub4 = target: T2, M1-Ub4 (UniProt P0CG48 1-76; P0CG48 1-76; P0CG48 1-76; P0CG48 1-76); experiment: as above
T2 construct: ubiquitin (Ub), first unit; ubiquitin (Ub), second unit; ubiquitin (Ub), third unit; ubiquitin (Ub), fourth unit

[1] = target: T3, yNpl4^113–580 (E123A K124A E125A) (Saccharomyces cerevisiae, UniProt P33755 113-580, E123A | K124A | E125A); experiment: crystal structure; yNpl4^113–580 (E123A K124A E125A)–yUfd1^288–305 complex; sitting drop, 20 °C, 90 mM Bis-Tris-HCl pH 7.5, 19% PEG3350, 10 mM ATP
T3 construct: not shown: GST, N-terminal, cleaved
T3 sequence (looked up): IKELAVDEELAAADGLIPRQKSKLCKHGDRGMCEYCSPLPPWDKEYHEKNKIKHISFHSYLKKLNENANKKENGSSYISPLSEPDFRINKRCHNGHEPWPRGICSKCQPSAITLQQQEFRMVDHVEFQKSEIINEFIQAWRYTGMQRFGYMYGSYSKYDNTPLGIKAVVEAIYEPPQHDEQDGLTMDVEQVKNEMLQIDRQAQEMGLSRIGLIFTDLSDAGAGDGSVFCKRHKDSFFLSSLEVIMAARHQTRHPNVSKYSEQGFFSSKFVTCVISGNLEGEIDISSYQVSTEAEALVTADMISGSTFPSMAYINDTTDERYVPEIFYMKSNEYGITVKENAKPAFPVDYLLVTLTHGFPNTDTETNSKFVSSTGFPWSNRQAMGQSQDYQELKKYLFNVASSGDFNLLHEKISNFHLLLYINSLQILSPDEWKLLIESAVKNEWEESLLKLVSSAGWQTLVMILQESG

[2] = target: T4, Cdc48 (recombinant, hexameric) (Saccharomyces cerevisiae, UniProt P25694 1-835); experiment: pull-down; GST-yUfd1 (0.5 μM) on Glutathione Sepharose 4B beads with His6-tagged Npl4 (wild type or mutant), Cdc48 and K48 chains; same binding buffer (Supplementary Fig. 3b)
T4 construct: Cdc48 AAA-family ATPase of Saccharomyces cerevisiae; source: E. coli Rosetta (DE3) (pET21a), purified (TALON resin, Superose 6)
T4 sequence (P25694 whole entry): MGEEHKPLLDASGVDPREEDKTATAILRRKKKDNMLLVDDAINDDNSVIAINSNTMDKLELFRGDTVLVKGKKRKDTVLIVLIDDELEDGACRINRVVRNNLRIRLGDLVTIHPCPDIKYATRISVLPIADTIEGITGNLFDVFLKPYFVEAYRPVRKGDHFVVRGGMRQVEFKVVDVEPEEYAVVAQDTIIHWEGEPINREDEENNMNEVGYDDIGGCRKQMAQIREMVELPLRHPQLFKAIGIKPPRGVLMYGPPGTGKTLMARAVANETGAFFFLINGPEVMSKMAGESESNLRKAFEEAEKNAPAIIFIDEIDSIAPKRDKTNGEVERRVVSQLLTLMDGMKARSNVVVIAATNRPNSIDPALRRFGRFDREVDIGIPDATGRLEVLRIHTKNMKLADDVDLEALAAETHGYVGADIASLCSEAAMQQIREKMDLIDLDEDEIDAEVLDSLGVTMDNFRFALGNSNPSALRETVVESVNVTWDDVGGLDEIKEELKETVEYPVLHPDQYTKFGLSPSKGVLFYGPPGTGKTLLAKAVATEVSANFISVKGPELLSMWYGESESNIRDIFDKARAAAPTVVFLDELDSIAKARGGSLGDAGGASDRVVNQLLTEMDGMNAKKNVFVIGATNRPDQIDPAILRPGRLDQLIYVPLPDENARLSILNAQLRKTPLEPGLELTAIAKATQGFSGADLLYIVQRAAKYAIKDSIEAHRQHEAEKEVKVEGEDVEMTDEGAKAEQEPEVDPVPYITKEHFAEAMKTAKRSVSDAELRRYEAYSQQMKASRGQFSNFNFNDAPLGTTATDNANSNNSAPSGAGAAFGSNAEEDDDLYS

- Kd (M1-Ub2): 333 µM and 420 µM
- Kd (M1-Ub4): 139 µM and 103 µM
B1: His6-yNpl4^113–580 (domain or fragment, Saccharomyces cerevisiae, UniProt P33755 113-580, looked up)
chain: IKELAVDEELEKEDGLIPRQKSKLCKHGDRGMCEYCSPLPPWDKEYHEKNKIKHISFHSYLKKLNENANKKENGSSYISPLSEPDFRINKRCHNGHEPWPRGICSKCQPSAITLQQQEFRMVDHVEFQKSEIINEFIQAWRYTGMQRFGYMYGSYSKYDNTPLGIKAVVEAIYEPPQHDEQDGLTMDVEQVKNEMLQIDRQAQEMGLSRIGLIFTDLSDAGAGDGSVFCKRHKDSFFLSSLEVIMAARHQTRHPNVSKYSEQGFFSSKFVTCVISGNLEGEIDISSYQVSTEAEALVTADMISGSTFPSMAYINDTTDERYVPEIFYMKSNEYGITVKENAKPAFPVDYLLVTLTHGFPNTDTETNSKFVSSTGFPWSNRQAMGQSQDYQELKKYLFNVASSGDFNLLHEKISNFHLLLYINSLQILSPDEWKLLIESAVKNEWEESLLKLVSSAGWQTLVMILQESG
notes: codon-optimized synthetic cDNA; also called WT; WT #1; source: E. coli Rosetta (DE3), purified (Ni-NTA, Resource Q); also in lysate, mixed with cells expressing GST-yUfd1 for co-purification; not shown: His6, N-terminal, kept

- binding result [1]: binds
B2: yUfd1^288–305 (peptide, UniProt P53044 288-305, looked up)
chain: EPAKLDLPEGQLFFGFPM
notes: also called yUfd1 NBM; not shown: GST, N-terminal, cleaved

- binding result [2]: binds
B3: GST-yUfd1 (full length) (natural protein, Saccharomyces cerevisiae, UniProt P53044 1-361, looked up)
chain: MFSGFSSFGGGNGFVNMPQTFEEFFRCYPIAMMNDRIRKDDANFGGKIFLPPSALSKLSMLNIRYPMLFKLTANETGRVTHGGVLEFIAEEGRVYLPQWMMETLGIQPGSLLQISSTDVPLGQFVKLEPQSVDFLDISDPKAVLENVLRNFSTLTVDDVIEISYNGKTFKIKILEVKPESSSKSICVIETDLVTDFAPPVGYVEPDYKALKAQQDKEKKNSFGKGQVLDPSVLGQGSMSTRIDYAGIANSSRNKLSKFVGQGQNISGKAPKAEPKQDIKDMKITFDGEPAKLDLPEGQLFFGFPMVLPKEDEESAAGSKSSEQNFQGQGISLRKSNKRKTKSDHDSSKSKAPKSPEVIEID
notes: Ufd1 of Saccharomyces cerevisiae (yUfd1), full length; also called GST-Ufd1; source: E. coli Rosetta (DE3) (pGEX-6P1), purified (Glutathione Sepharose FF, Resource Q); not shown: GST, N-terminal, kept

— article PMC6910952 (Nature Communications, 2019)
